30 sequences from the nanobody polyreactivity screen of Harvey et al. (2022) can be followed below.

A short description of this series: yeast display, Sf9 membrane polyspecificity reagent, FACS + sequencing; frameworks hold sequencing errors. The gist of the method:
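Polyreactivity labels are assigned by the sorting gate from which each nanobody was recovered. The gates were low and high (top ~1%), set on anti-HA fluorescence for expression and streptavidin fluorescence for reagent binding. Before sorting, galactose-induced (36–48 hours) yeast display cells were stained for 1 hour at 4 °C with 10% biotinylated, detergent-solubilized Sf9 membrane reagent.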
On to “QFQLVESGGGLVQAGGSLRLSCAASGFTFDGYAMGWYRQAPGKERELVAAISDSGDSTYYADSVKGRFTISRDNAKITVYLQMNSLKPEDTAVYYCAAGLGYYWSDYFAYDYWGQGTQVTVSS”, for which the “polyreactivity (PSR sort gate)” value is recorded as “low polyreactivity”. The same measure for “QVQLVESGGGLVQAGGSLRLSCAASGITFDKYALGWYRQAPGNERELVAAISGSDGSTYYADSVKGRFTISRDNAKNTVYLQNNSLKPEDTAVYYCAAESEYAGTYEYDYWGQGTQVTVSS”: “low polyreactivity”.

Consider “QVQLVESGGGLVQAGGSLRLSCAASGGIFSRYAMGWYRQAPGKEREFVAAISFSGASTYYTDSVKGRFTISRDTAKNTVYLQMNSLKPEDTAVYYCAAYWDAEGRRYTRLDYWGQGTQVTVSS”, for which the “polyreactivity (PSR sort gate)” value is “low polyreactivity”. With “QVQLVESGGGLVQAGGSLRLSCAASGRTFRGNAMGWYRQAPGKESELVAVITASGSTTYADSVKGRFTISRDNAKNTVYLQMNSLKPEDTAVYYCAKYVPWYTLWLGGTDRDYWGQGTQVTVSS”, the “polyreactivity (PSR sort gate)” value is given as “low polyreactivity”. The same measure for “QVQLVESGGGLVQAGGSLRLSCAASGRIFKYNAMGWYRQAPGKERELVAAISSSGGSTYYADSVKGRCTISRDNAKNTVYLQMNSLKPEDTAVYYCAARYNSRVYRYDYWGQGTQVTVSS”: “high polyreactivity”. As to “QVQLVESGGGLVQAGGSLRLSCAASGIIFSIYAMGWSRQAPGKERELVAAISGRGGRTYYADSVKGRFTMSRDNAKNTVYLQMNSLKPEDTAVYFCAAGAHAYAHYSWFYFRMHYWGQGTQVTVSS”, the “polyreactivity (PSR sort gate)” value is on record as “low polyreactivity”. Next, “QVQLVESGGGLVQAGGSLRLSCAASGHIFANYAMGWYRQAPGKERELVAAIRWSASRTYYADSVKGRFTISRDYAKNTVFLQLNSLKPEDTAVYYCAATIYTFWAYYYDYWGQGTQVTVSS”: “high polyreactivity”; “QVQLVESGGGLVQAGRSLRLSCAASGRIFGTYAMGWYRQAPGKERELVAAITQSGGRTYYADSVKGRFTISRDNAKNTVYLQMNSLKPEDSAVYFCNIVTYRGIGLGYDYWGHGTQVTVSS”: “high polyreactivity”; “QVHLVESGGGLVQAGGSLRLSCAASGITLRVYVMGWYRQAPGKERELVAAITSRGDRTYYADSVKGRFTISRDNAKNTVYLQMNSLKPEDTAVYYCAASRWRDAGHSYDYWGQGTQVTVSS”: “high polyreactivity”. With “QVQLVESGGGLVQAGGSLRLSCAASGFIIGGNPMGWYRQAPGKVRELVAAITGGGSTYYADSVKGRFTISRENAKNTVYLQMNSLKPEDTAVYYCNAGRVLRLAYNYWGQGTQVTVSS”, the “polyreactivity (PSR sort gate)” value is “low polyreactivity”. The same measure for “QVQLVESGGGLVQSGGSLRLSCAASGSTFSRYVMGSYRQAPGKERELVAAITNTGSTYYADSVKGRFTISRDNAKNTVYLQMNSLKPEDTAVYYCAATQYRSDGWRYDYWGQGTQVTVSS”: “high polyreactivity”; for “QVQLVESGGGLVQAGGSLRLSCAASGRTIRRNAMGWYRQAPGKERELVAGISGSGTITYADSVKGRFTISRDNAKNTVYLQMNSLKPEDTAVYYCAARRKSFYTFYYWGQGTQVTVSS”: “high polyreactivity”.

Consider “QVQLVESGGGLVQAGGSLRLSCAASGSTLGVYVMGWYRQAPGKERELVAAISRNGGSTYYADSVKGRFTISRDNAKITVYLQMNSLKPEDTAVYYCAARTVGRKAGFDYWGQGTQVTVSS”, for which the “polyreactivity (PSR sort gate)” value was “high polyreactivity”. Next, “QVQLVESGGGLVQAGGSLRLSCAASGITFKGNAMGWYRQAPGKERELVAVITWSGGSTYYADSVKGRFTISRDNAKNTVYLQMNSLKPEDTAVYYCAKPWKYGDSQYDYWGQGTQVTVSS”: “low polyreactivity”; “QVQLVESGGGLVQAGGSLRLSCAASGFTFDDYAMGWYRQAPGKERELVAAISWSGGSTYYADSVKGRFTISRDNAKNTVYLQMNSLKPEDTAVYYCAALRTGAQYSTMDYWGQGTQVTVSS”: “low polyreactivity”; “QVQLVESGGGLVQAGGSLRLSCAASGRIFAYYAMGWYRQAPGKERELVAAITSDGSSTYYADSVKGRFTISRDNAKNTVYLQMNSLKPEDTAVDYCAAGTYPFWDWIFDLWVDYWGQGTQVTVSS”: “high polyreactivity”. In the case of “QVQLVESGGGLVQAGGSLRLSCAASGSIFFYNAMGWYRQAPGKERELVAAISRGGSTYYADSVKGRFTISRDNAKNTVYLQMNSLKPEDTAVYYCAVQRRRNSNVLFDYWGQGTQVTVSS”, the “polyreactivity (PSR sort gate)” value is “high polyreactivity”.

With “QVQLVESGGGLVQAGGSLRLSCAASGSTFDYNAMGWYRQAPGKERELVATITSTGRTNYADSVKGRFTISRDNAKNTVYLQMNSLKPEDTAVYYCAKRTFFGKARGGPTYRLYYWGQGTQVTVSS”, the “polyreactivity (PSR sort gate)” value is on record as “high polyreactivity”. The same measure for “QVQLVESGGGLVQAGGSLRLSCAPSGRSFASYAMGWYRQAPGKERELVAAISKSGGRTYYADSVKGRFTISRDNAKNTVYLQMNSLKPEDTAVYYCAAYFWTRSGTPNYDYWGQGTQVTVSS”: “high polyreactivity”. The same measure for “QVQLVESGGGLVQAGGSLRLSCAASGSTLHEYVMGWYRQAPGKGRELVAAISRRGDSTYYADSVKGRFTISRDNAKNTVYLQMNSLKPEDTAVYYCAARWYWYWSSWDYYSWGQGTQVTVSS”: “low polyreactivity”; for “QVQLVESGGCLVQAGGSLRLSCAATGSIFYGNTMVWYRQAPGKDRELLAAISSGGSTKYADSVKGRFTISRDNAKNTVYLQMNSLKPEDTAVYYCAADLPRYWVTWMDYRGQGTQVTVSS”: “low polyreactivity”. On to “QVQLVESGGGLVQAGGSLRLSCAATGSTFLRNAIGWYRQAPGTERELVATITNGGSTYYADSVKGRFTISRDNAKNTVYLQMNSLKPEDTAVYYCATLSSYWSWLRYGYGYWGQGTQVTVSS”, for which the “polyreactivity (PSR sort gate)” value is “low polyreactivity”. The same measure for “QVQHVESGGGLVQAGGSLRLSCAASGFTFQSYPMGWYRQAPGKERELVAAITRRGTRTYYADSVKGRFTISRDNAKNTVYLQLNSLKPEDTAVYYCAARSPKLEFDYWGQGTQVTVSS”: “high polyreactivity”; for “QVQLVESGGGLVQAGGSLRLSCAASGRTFYPNAMGWYRQAPGKEREFVARISDSGGSTYYADSVKGRFTISRDNAKNTVYLLMNSLKPEDTAVYYCAADYGDPRVNEYDYWGQGTQVTVSS”: “low polyreactivity”; for “QVQLVESGGGLVQAGGSLRLSCAASGSIFQRYAMGWYRQAPGKEREFVAAISGRGGSTYYADSVKGRFTISRDNAKNTVYLQMNSLKPEDTAVYYCADDSSRFYGRPRYYYWGQGTQVTVSS”: “high polyreactivity”. The same measure for “QVQLVESGGGLVQAGGSLRLSCAASGSTFYTNAMGWYRQAPGKDRELVAVITSRGGGTYYADSVKGRFTISRDYAKNTVYLQMNRLKPEDTSVYYCAAYPLVSWGRHGTKGDYWGQGTQVTVSS”: “low polyreactivity”; for “QVQLVESGGGLVQAGGSLRLSCAASGFIFARYAMGWYRQAPGKERELVATISKSGGRTYYADSVKGRFTISRDNAKNTVYLQMNSLKPEDTAVYYCATRYSTTSPGDDYWGQGTQVTVSS”: “high polyreactivity”; for “QVQHVESGGGLVQAGGSLRLSCAASGITFKPNAMGWSRHAPGKERELVAAIDSGGSTNYAYSVKGRFTISLDNAKNTVYLQMNSLKPEDTAVYYCAAPYQDRDLQVSYSTYEGGYWGQGTQVTVSS”: “low polyreactivity”. The same measure for “QVQLVESGGGLVQAGGSLRLSCAASGRTFAPYAMGWYRQAPGKERELVAAIRWTGTSTYYADSVKGRFTISRDNAKNTVYLQMNSLKPEDTAVYYCNADLYNREGWGQGTQVTVSS”: “high polyreactivity”. As for “QVQLVESGGGLVQAGGSLRLSCAASGRTLYLNAMRWNRQPQRKERELVAISSGGSTYYADSVKGRFTISRDNAKNTVYLQMNSLKPEDTAVYYCNADEHYHFGYVFWYAYDYWGQGTQVTVSS”, the “polyreactivity (PSR sort gate)” value is “low polyreactivity”.
